Assay results: publication PMC11096365, “Cryo-EM structures of the human Elongator complex at work” (Nature Communications, 2024)
Residue numbers refer to the chain shown, from its start. Each block holds one molecule with its values, some of them ahead of it.

Key:
H3 = assay: MST; settings: complex; chains chain;chain;chain
TK40 = assay: MST; settings: complex; chains chain;chain;chain
ELP1;ELP2;ELP3 wild type = ELP1;ELP2;ELP3 wild type (Homo sapiens;Homo sapiens;Homo sapiens, UniProt O95163;Q6IA86;Q9H9T3 1-1332;1-826;1-547, ||); assay: MST; MST: 20 mM HEPES pH 7.5, 100 mM NaCl, 5 mM DTT, 0.05% Tween 20; incubated at 4 C 30 min, measured at 25 C; Cy5-tRNA 14 or 30 nM. Cryo-EM: 20 mM HEPES pH 7.5, 100 mM NaCl, 2 mM MgCl2, 2 mM DTT; settings: protein: recombinant;recombinant;recombinant, tags: ;;C-terminal Twin-Strep-Tag, chain copies: 2;2;2, label: internal Cy5 (5% Cy5-CTP), tRNA fold
[1] = molecular target: the molecule itself; assay: cryo-EM structure; co-expressed, co-purified ELP123 (0.6 g/l) without or with tRNA (3.3 µM), acetyl-CoA/DCA/ECA (0.5 mM) and SAM (1 mM); 20 mM HEPES pH 7.5, 100 mM NaCl, 2 mM MgCl2, 2 mM DTT; single-particle analysis
[2] = molecular target: T1, human ELP3 with C-terminal Twin-Strep-Tag (human, UniProt Q9H9T3 1-547); assay: co-purification with SDS-PAGE; ELP1, ELP2 and ELP3-Twin-Strep co-expressed in insect cells; StrepTrap, heparin and Superose 6 columns; SDS-PAGE of the purified subcomplex; settings: partners not purified
T1 construct: ELP3, human, codon-optimized open reading frame, UniProt Q9H9T3; with the tag 65 kDa as printed; Same material as the ELP3 chain of m4; carries an iron-sulfur cluster in all structures; also called ELP3 with Twin-Strep-Tag (TST); source: SuperSf9-3 insect cells, co-expressed with ELP1 and ELP2 (pBig1a), purified as ELP123 (StrepTrap, heparin, Superose 6); not shown: Twin-Strep-Tag, C-terminal, …
T1 sequence (looked up): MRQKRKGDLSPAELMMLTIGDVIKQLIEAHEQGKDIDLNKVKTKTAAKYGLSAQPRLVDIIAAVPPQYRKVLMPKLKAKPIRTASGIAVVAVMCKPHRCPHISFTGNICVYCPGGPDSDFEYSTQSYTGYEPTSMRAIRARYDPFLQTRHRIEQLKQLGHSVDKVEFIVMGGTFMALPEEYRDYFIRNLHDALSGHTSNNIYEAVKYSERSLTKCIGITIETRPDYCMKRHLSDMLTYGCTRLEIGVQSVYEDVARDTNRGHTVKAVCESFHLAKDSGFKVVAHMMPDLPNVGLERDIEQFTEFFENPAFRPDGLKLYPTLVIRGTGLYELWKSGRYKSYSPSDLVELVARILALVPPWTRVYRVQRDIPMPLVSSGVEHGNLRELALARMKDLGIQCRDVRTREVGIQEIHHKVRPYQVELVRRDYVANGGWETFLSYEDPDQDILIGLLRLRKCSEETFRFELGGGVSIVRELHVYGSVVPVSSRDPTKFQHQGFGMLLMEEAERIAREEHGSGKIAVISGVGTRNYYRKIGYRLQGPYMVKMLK

Kd (H3): > 10000 nM
Kd (TK40): > 10000 nM
Molecule: human ELP123 subcomplex (ELP1, ELP2, ELP3), O95163 1-1332; Q6IA86 1-826; Q9H9T3 1-547

B1: tRNAGln U33C34UG (structured_RNA)
RNA: GGCCCCAUGGUGUAAUGGUUAGCACUCUGGACUCUGAAUCCAGCGAUCCGAGUUCAAAUCUCGGUGGGACCUCCA
binding result (ELP1;ELP2;ELP3 wild type): binds

B2: tRNAGln C33C34UG (structured_RNA)
RNA: B1 RNA with U33C
binding result (ELP1;ELP2;ELP3 wild type): binds

B3: tRNAGlnCUG (structured_RNA)
RNA: B1 RNA with C3U, C4U, G68A
Kd (ELP1;ELP2;ELP3 wild type): 118 ± 13.8 nM

B4: tRNAGln C33U34UG (structured_RNA)
RNA: B1 RNA with U33C, C34U
binding result (ELP1;ELP2;ELP3 wild type): binds

stoichiometry N [2]: 1
B5: human ELP1 (natural protein, UniProt O95163 1-1332, looked up)
chain: MRNLKLFRTLEFRDIQGPGNPQCFSLRTEQGTVLIGSEHGLIEVDPVSREVKNEVSLVAEGFLPEDGSGRIVGVQDLLDQESVCVATASGDVILCSLSTQQLECVGSVASGISVMSWSPDQELVLLATGQQTLIMMTKDFEPILEQQIHQDDFGESKFITVGWGRKETQFHGSEGRQAAFQMQMHESALPWDDHRPQVTWRGDGQFFAVSVVCPETGARKVRVWNREFALQSTSEPVAGLGPALAWKPSGSLIASTQDKPNQQDIVFFEKNGLLHGHFTLPFLKDEVKVNDLLWNADSSVLAVWLEDLQREESSIPKTCVQLWTVGNYHWYLKQSLSFSTCGKSKIVSLMWDPVTPYRLHVLCQGWHYLAYDWHWTTDRSVGDNSSDLSNVAVIDGNRVLVTVFRQTVVPPPMCTYQLLFPHPVNQVTFLAHPQKSNDLAVLDASNQISVYKCGDCPSADPTVKLGAVGGSGFKVCLRTPHLEKRYKIQFENNEDQDVNPLKLGLLTWIEEDVFLAVSHSEFSPRSVIHHLTAASSEMDEEHGQLNVSSSAAVDGVIISLCCNSKTKSVVLQLADGQIFKYLWESPSLAIKPWKNSGGFPVRFPYPCTQTELAMIGEEECVLGLTDRCRFFINDIEVASNITSFAVYDEFLLLTTHSHTCQCFCLRDASFKTLQAGLSSNHVSHGEVLRKVERGSRIVTVVPQDTKLVLQMPRGNLEVVHHRALVLAQIRKWLDKLMFKEAFECMRKLRINLNLIYDHNPKVFLGNVETFIKQIDSVNHINLFFTELKEEDVTKTMYPAPVTSSVYLSRDPDGNKIDLVCDAMRAVMESINPHKYCLSILTSHVKKTTPELEIVLQKVHELQGNAPSDPDAVSAEEALKYLLHLVDVNELYDHSLGTYDFDLVLMVAEKSQKDPKEYLPFLNTLKKMETNYQRFTIDKYLKRYEKAIGHLSKCGPEYFPECLNLIKDKNLYNEALKLYSPSSQQYQDISIAYGEHLMQEHMYEPAGLMFARCGAHEKALSAFLTCGNWKQALCVAAQLNFTKDQLVGLGRTLAGKLVEQRKHIDAAMVLEECAQDYEEAVLLLLEGAAWEEALRLVYKYNRLDIIETNVKPSILEAQKNYMAFLDSQTATFSRHKKRLLVVRELKEQAQQAGLDDEVPHGQESDLFSETSSVVSGSEMSGKYSHSNSRISARSSKNRRKAERKKHSLKEGSPLEDLALLEALSEVVQNTENLKDEVYHILKVLFLFEFDEQGRELQKAFEDTLQLMERSLPEIWTLTYQQNSATPVLGPNSTANSIMASYQQQKTSVPVLDAELFIPPKINRRTQWKLSLLD
notes: ELP1, human, codon-optimized open reading frame, UniProt O95163; predicted MW printed as 148 kDa; Same material as the ELP1 chain of m4; The ORF was first cloned into pFastBac1 HT A; source: SuperSf9-3 insect cells, co-expressed with ELP2 and ELP3 (pBig1a), purified as ELP123 (StrepTrap, heparin, Superose 6)
binding result [1]: binds

B6: tRNASerUGA (structured_RNA)
RNA: GCAGCGAUGGCCGAGUGGUUAAGGCGUUGGACUUGAAAUCCAAUGGGGUCUCCCCGCGCAGGUUCGAACCCUGCUCGCUGCGCCA
Kd (ELP1;ELP2;ELP3 wild type; long variable loop): 138 ± 10.5 nM

stoichiometry N [2]: 1
B7: human ELP2 (natural protein, UniProt Q6IA86 1-826, looked up)
chain: MVAPVLETSHVFCCPNRVRGVLNWSSGPRGLLAFGTSCSVVLYDPLKRVVVTNLNGHTARVNCIQWICKQDGSPSTELVSGGSDNQVIHWEIEDNQLLKAVHLQGHEGPVYAVHAVYQRRTSDPALCTLIVSAAADSAVRLWSKKGPEVMCLQTLNFGNGFALALCLSFLPNTDVPILACGNDDCRIHIFAQQNDQFQKVLSLCGHEDWIRGVEWAAFGRDLFLASCSQDCLIRIWKLYIKSTSLETQDDDNIRLKENTFTIENESVKIAFAVTLETVLAGHENWVNAVHWQPVFYKDGVLQQPVRLLSASMDKTMILWAPDEESGVWLEQVRVGEVGGNTLGFYDCQFNEDGSMIIAHAFHGALHLWKQNTVNPREWTPEIVISGHFDGVQDLVWDPEGEFIITVGTDQTTRLFAPWKRKDQSQVTWHEIARPQIHGYDLKCLAMINRFQFVSGADEKVLRVFSAPRNFVENFCAITGQSLNHVLCNQDSDLPEGATVPALGLSNKAVFQGDIASQPSDEEELLTSTGFEYQQVAFQPSILTEPPTEDHLLQNTLWPEVQKLYGHGYEIFCVTCNSSKTLLASACKAAKKEHAAIILWNTTSWKQVQNLVFHSLTVTQMAFSPNEKFLLAVSRDRTWSLWKKQDTISPEFEPVFSLFAFTNKITSVHSRIIWSCDWSPDSKYFFTGSRDKKVVVWGECDSTDDCIEHNIGPCSSVLDVGGAVTAVSVCPVLHPSQRYVVAVGLECGKICLYTWKKTDQVPEINDWTHCVETSQSQSHTLAIRKLCWKNCSGKTEQKEAEGAEWLHFASCGEDHTVKIHRVNKCAL
notes: ELP2, human, codon-optimized open reading frame; predicted MW printed as 93 kDa; Same material as the ELP2 chain of m4; The ORF was first cloned into pFastBac1 HT A; source: SuperSf9-3 insect cells, co-expressed with ELP1 and ELP3 (pBig1a), purified as ELP123 (StrepTrap, heparin, Superose 6)
